Results from patent US20240247301A1, “DIAGNOSTIC ASSAY FOR CLASSIC INBORN GALACTOSEMIA” (Ohio State Innovation Foundation, priority 2022, published 2024).
Values joined by “and” are separate entries in the source; they are usually repeats but may differ in a detail not shown here. Equal values may be shown once.

System: O=P(O)(O)O[C@H]1O[C@H](CO)[C@@H](O)[C@H](O)[C@H]1O
Experiment: YidA phosphatase activity (malachite green), dephosphorylation of Glc-1-P
Format: biochemical, Salmonella typhimurium
Excerpt: The sugar phosphate phosphatase produced from an engineered cell can be identical to a naturally occurring one, such as YidA or YihX, but placed within a cell in which it is not naturally produced. Examples of this approach are given throughout. The sequence for YidA from Salmonella typhimurium can be found, for example, in NC_492731.1. This sequence corresponds to SEQ ID NO: 1. The gene ID is 1255358. The sequence for YihX from Salmonella typhimurium can be found, for example, in NC_462906.1. This corresponds to SEQ ID NO: 2. The gene ID is 1255552. In one example, genes encoding these proteins can be placed within a cell in which it is not naturally occurring.
Nearly homogeneous recombinant Salmonella YidA by overexpressing it in E. coli SixPack cells were obtained (Lipinszki et al. 2018) (FIG. 3A). N-terminal fusions with a small ubiquitin-like modifier (SUMO) domain were engineered to enhance solubility (Marblestone et al. 2006) and a His6 tag to facilitate affinity purification (FIG. 3A). […] Since YidA is a Mg^2+-dependent phosphatase, its activity with Glc-1-P in the presence of 0-5 mM MgCl2 was first tested and determined that 3 mM MgCl2 was optimal (FIG. 5). […]

Question: For “Salmonella typhimurium YidA, recombinant wild type, SEQ ID NO: 1 (Salmonella enterica subsp. enterica serovar Typhimurium str. LT2)”, which Km (other: mean ± SE of two independent trials, pH 8.0) is on record?
Answer: 1340 ± 20 µM and 1350 ± 10 µM

Question: What about the Km (other: single trials, ± curve-fit error, pH 8, 37° C., 3 mM MgCl2, 37.0 °C) of the same substance?
Answer: 1340 ± 300 µM and 1350 ± 300 µM
